For the assay, the target named is RDO24_mFab2 (mouse, UniProt P01863 = IgG part). Briefly: SPR. (In general: In SPR one partner is held on a chip, and binding of the other changes the refractive index at the surface.)

B1: recombinant human MET ECD-Fc (Recombinant Human HGFR/c-MET Fc Chimera His-tag Protein) (Fc fusion)
chain: ECKEALAKSEMNVNMKYQLPNFTAETPIQNVILHEHHIFLGATNYIYVLNEEDLQKVAEYKTGPVLEHPDCFPCQDCSSKANLSGGVWKDNINMALVVDTYYDDQLISCGSVNRGTCQRHVFPHNHTADIQSEVHCIFSPQIEEPSQCPDCVVSALGAKVLSSVKDRFINFFVGNTINSSYFPDHPLHSISVRRLKETKDGFMFLTDQSYIDVLPEFRDSYPIKYVHAFESNNFIYFLTVQRETLDAQTFHTRIIRFCSINSGLHSYMEMPLECILTEKRKKRSTKKEVFNILQAAYVSKPGAQLARQIGASLNDDILFGVFAQSKPDSAEPMDRSAMCAFPIKYVNDFFNKIVNKNNVRCLQHFYGPNHEHCFNRTLLRNSSGCEARRDEYRTEFTTALQRVDLFMGQFSEVLLTSISTFIKGDLTIANLGTSEGRFMQVVVSRSGPSTPHVNFLLDSHPVSPEVIVEHTLNQNGYTLVITGKKITKIPLNGLGCRHFQSCSQCLSAPPFVQCGWCHDKCVRSEECLSGTWTQQICLPAIYKVFPNSAPLEGGTRLTICGWDFGFRRNNKFDLKKTRVLLGNESCTLTLSESTMNTLKCTVGPAMNKHFNMSIIISNGHGTTQYSTFSYVDPVITSISPKYGPMAGGTLLTLTGNYLNSGNSRHISIGGKTCTLKSVSNSILECYTPAQTISTEFAVKLKIDLANRETSIFSYREDPIVYEIHPTKSFISGGSTITGVGKNLNSVSVPRMVINVHEAGRNFTVACQHRSNSEIICCTTPSLQQLNLQLPLKTKAFFMLDGILSKYFDLIYVHNPVFKPFEKPVMISMGNENVLEIKGNDIDPEAVKGEVLKVGNKSCENIHLHSEAVLCTVPNDLLKLNSELNIEWKQAISSTVLGKVIVQPDQNFT
Consider B1, for which the koff (usually the rate constant with which the complex falls apart) stood at 0.000335 s⁻¹.

These data come from article PMC8679783 (2021).
